Measurements: the supplement of paper PMC7877785
± gives the uncertainty stated by the source.

Test: self-splicing fitness, log relative to wild type (ln ratio); higher = more splicing; Tetrahymena group I intron in knt gene, E. coli kanamycin selection, DiMSum; sequences stand for … in CUCUCU…GGAGGGAAAAGUUAUCAGGCAUGCACCUGGUAGCUAGUCUUUAAACCAAUAGAUUGCAUCGGUUUAAAAGGCAAGACCGUCAAAUUGCGGGAAAGGGGUCAACAGCCGUUCAGUACCAAGUCUCAGGGGAAACUUUGAGAUGGCCUUGCAAAGGGUAUGGUAAUAAGCUGACGGACAUGGUCCUAACCACGCAGCCAAGUCCUAAGUCAACAGAUCUUCUGUUGAUAUGGAUGCAGUUCACAGACUAAAUGUCGGUCGGGGAAGAUGUAUUCUUCUCAUAAGAUAUAGUCGGACCUCUCCUUAAUGGGAGCUAGCGGAUGAAGUGAUGCAACACUGGAGCCGCUGGGAACUAAUUUGUAUGCGAAAGUAUAUUGAUUAGUUUUGGAGUACUCGUGGUCG
How it was run: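 Six replicate transformations of E. coli BL21(DE3) with a pET-22b(+) library were grown overnight at 37°C or 30°C. The library randomised all eight P1ex-region intron nucleotides, the intron lying in the knt kanamycin-resistance gene, and plates were LB agar with or without 25 μg/mL kanamycin plus 100 μg/mL carbenicillin, 50 μM IPTG and 0.2% rhamnose. Pooled colonies were amplicon-sequenced on an Illumina HiSeq 2500, and fitness is the DiMSum error-weighted combination of wild-type-normalised replicate fold changes, kanamycin versus none.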

Sequence | self-splicing fitness (ln) (30 °C) | self-splicing fitness (ln) (37 °C)
CUCAAGCAAUAUUACGUUGC | -4.05 ± 0.29 | -2.39 ± 0.21
CUCCAGCAAUAUUACGAAUA | -3.91 ± 0.47 | -2.54 ± 0.28
CUCCAGCAAUAUUACGACGA | -3.77 ± 0.26 | -2.5 ± 0.18
CUCCAGCAAUAUUACGCCCU | -3.46 ± 0.34 | -2 ± 0.26
CUCCAGCAAUAUUACGCGCA | -3.34 ± 0.31 | -2.56 ± 0.49
CUCCAGCAAUAUUACGCGCU | -4.33 ± 0.26 | -2.2 ± 0.2
CUCCAGCAAUAUUACGCUCA | -2.97 ± 0.17 | -2.31 ± 0.19
CUCCAGCAAUAUUACGCUGG | -1.92 ± 0.23 | –
CUCCAGCAAUAUUACGGACC | -3.65 ± 0.32 | -2.64 ± 0.44
CUCCAGCAAUAUUACGGAGA | -3.61 ± 0.27 | -2.21 ± 0.21
CUCCAGCAAUAUUACGGAGG | -3.04 ± 0.17 | -2.44 ± 0.13
CUCCAGCAAUAUUACGGCCG | -1.3 ± 0.1 | -0.777 ± 0.14
CUCCAGCAAUAUUACGGCGU | -3.61 ± 0.17 | -3.4 ± 0.23
CUCCAGCAAUAUUACGGCUA | -3.19 ± 0.26 | -2.27 ± 0.2
CUCCAGCAAUAUUACGGGCG | -1.74 ± 0.092 | -1.2 ± 0.13
CUCCAGCAAUAUUACGGGGA | -3.46 ± 0.18 | -0.678 ± 0.1
CUCCAGCAAUAUUACGGGGG | -3.56 ± 0.16 | -2.89 ± 0.19
CUCCAGCAAUAUUACGGGUC | -3.88 ± 0.24 | -2.2 ± 0.22
CUCCAGCAAUAUUACGGUCA | -2.86 ± 0.13 | -1.82 ± 0.13
CUCCAGCAAUAUUACGGUUA | -3.03 ± 0.18 | -2.45 ± 0.16

Sequence | self-splicing fitness (ln) (30 °C) | self-splicing fitness (ln) (37 °C)
CUCCAGCAAUAUUACGUACC | -3.31 ± 0.29 | -1.19 ± 0.32
CUCCAGCAAUAUUACGUAUC | -3.01 ± 0.16 | -2.73 ± 0.23
CUCCAGCAAUAUUACGUCAC | -3.88 ± 0.26 | -2.69 ± 0.29
CUCCAGCAAUAUUACGUUCG | -3.41 ± 0.13 | -2.39 ± 0.17
CUCGAGCAAUAUUACGAAUG | -1.91 ± 0.14 | -1.15 ± 0.17
CUCGAGCAAUAUUACGACGU | -3.11 ± 0.14 | -1.59 ± 0.14
CUCGAGCAAUAUUACGAUCA | -2.04 ± 0.4 | –
CUCGAGCAAUAUUACGCAAC | -3.47 ± 0.49 | -1.71 ± 0.31
CUCGAGCAAUAUUACGCCGC | – | -2.12 ± 0.4
CUCGAGCAAUAUUACGCCGG | -3.32 ± 0.43 | -1.17 ± 0.34
CUCGAGCAAUAUUACGCCGU | – | -1.79 ± 0.26
CUCGAGCAAUAUUACGCGCC | -2.53 ± 0.19 | -2.12 ± 0.37
CUCGAGCAAUAUUACGCGCU | -3.66 ± 0.22 | -2.69 ± 0.23
CUCGAGCAAUAUUACGGGAA | -3.85 ± 0.35 | -2.42 ± 0.23
CUCGAGCAAUAUUACGGGAC | -3.8 ± 0.24 | -2.41 ± 0.27
CUCGAGCAAUAUUACGGGAG | – | -1.11 ± 0.22
CUCGAGCAAUAUUACGUAAG | -2.81 ± 0.17 | -1.26 ± 0.18
CUCGAGCAAUAUUACGUCGG | -1.37 ± 0.15 | -0.674 ± 0.21
CUCGAGCAAUAUUACGUUAA | -3.68 ± 0.2 | -2.53 ± 0.17
CUCGAGCAAUAUUACGUUUA | -3.22 ± 0.41 | -3.05 ± 0.4
